According to article PMC4564863:

B1: Rv0275cp1 (dsDNA)
DNA 1: TGCCGCTAATTATGGAAACACCTGTATCCTGATATTGGCCGG
DNA 2: CCGGCCAATATCAGGATACAGGTGTTTCCATAATTAGCGGCA
B2: Rv0275cp4 (dsDNA)
DNA 1: TGCCGCTAATTATTTATTTGCCGTGGGAATGATATTGGCCGG
DNA 2: CCGGCCAATATCATTCCCACGGCAAATAAATAATTAGCGGCA

Columns and labels:
InbR (Rv0275c) = InbR (Rv0275c) (Mycobacterium tuberculosis, UniProt L7N6A2); assay: biochemical
InbR = target: T1, InbR (Mycobacterium tuberculosis H37Rv, UniProt L7N6A2 1-241); assay: EMSA; 0.25-2 uM InbR; details: protein: recombinant; tags: His6 (pET28a, N-terminal); label: FITC
T1 sequence: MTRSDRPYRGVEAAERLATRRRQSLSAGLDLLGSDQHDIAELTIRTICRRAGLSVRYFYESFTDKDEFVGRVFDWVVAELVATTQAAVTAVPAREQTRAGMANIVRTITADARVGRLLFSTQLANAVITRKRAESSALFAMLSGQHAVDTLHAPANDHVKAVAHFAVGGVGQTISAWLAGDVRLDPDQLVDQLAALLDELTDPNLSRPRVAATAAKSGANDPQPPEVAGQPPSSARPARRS

Row | Molecule | Kd (InbR (Rv0275c)) [nM] | binding result (InbR)
1 | NNC(=O)c1ccncc1 [INH, Isoniazid] | 720 | –
2 | B1 | – | binds
3 | B2 | – | no binding
